Literature values as cited in US9889085B1, “Therapeutic methods for the treatment of diabetes and related conditions for patients with high baseline HbA1c” (Intarcia Therapeutics, Inc., priority 2014, dated 2018).

Settings: in vivo

Substance	half-life
EGTFTSDVSSYLEGQAAKEFIAWLVKGR [GLP-1]	approximately 2 minutes
PYY: 36 amino acid residue peptide amide	approximately 8 minutes
